# No end group written: not given here.
# T1: PACAP-R3 (human, UniProt P41587 24-438)
# T1 sequence (looked up): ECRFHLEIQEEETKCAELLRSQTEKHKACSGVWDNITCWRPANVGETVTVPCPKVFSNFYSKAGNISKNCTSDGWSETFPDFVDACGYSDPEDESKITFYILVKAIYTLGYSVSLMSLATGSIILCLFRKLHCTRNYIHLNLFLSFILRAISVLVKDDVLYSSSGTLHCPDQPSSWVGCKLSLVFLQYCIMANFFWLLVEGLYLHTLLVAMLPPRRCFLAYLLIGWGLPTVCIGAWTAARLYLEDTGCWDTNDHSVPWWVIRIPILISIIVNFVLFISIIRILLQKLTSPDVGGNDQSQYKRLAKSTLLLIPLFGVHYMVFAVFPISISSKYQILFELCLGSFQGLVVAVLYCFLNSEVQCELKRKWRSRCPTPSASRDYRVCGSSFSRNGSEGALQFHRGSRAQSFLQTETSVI
# Target: T1, PACAP-R3
# Assay: cell-based or functional assay
R3 EC50 [nM],R3 Selectivity,Binder
0.4,100,HSDAVFTDNYTRLRKQMAAKKYLNSIKNKD [R3P155]
0.8,50,HSDAVFTDNYTRLRKQMAAKKYLNSIKNVR [R3P150]
0.3,170,HSDAVFTDNYTRLRKQMAAKKYLNSIKNKF [R3P157]
0.2,100,HSDAVFTDNYTRLRKQMAAKKYLNSIKNIR [R3P141]
0.5,400,HSDAVFTDNYTRLRKQMAAKKYLNSIKNKH [R3P159]
0.3,300,HSDAVFTDNYTRLRKQMAAKKYLNSIKNKN [R3P164]
0.2,500,HSDAVFTDNYTRLRKQMAAKKYLNSIKNKI [R3P160]
3,100,HSDAVFTDNYTRLRKQMAAKKYLNSIKNNR [R3P144]
0.2,30,HSDAVFTDNYTRLRKQMAAKKYLNSIKNMR [R3P143]
0.2,200,HSDAVFTDNYTRLRKQMAAKKYLNSIKNKA [R3P153]
0.2,–,HSDAVFTDNYTRLRKQMAAKKYLNSIKNKM [R3P163]
0.5,100,HSDAVFTDNYTRLRKQMAAKKYLNSIKNPR [R3P145]
0.3,100,HSDAVFTDNYTRLRKQMAAKKYLNSIKNSR [R3P148]
0.2,300,HSDAVFTDNYTRLRKQMAAKKYLNSIKNKK [R3P161]
0.2,500,HSDAVFTDNYTRLRKQMAAKKYLNSIKNRR [R3P147]
0.5,80,HSDAVFTDNYTRLRKQMAAKKYLNSIKNTR [R3P149]
1,100,HSDAVFTDNYTRLRKQMAAKKYLNSIKNKE [R3P156]
0.2,30,HSDAVFTDNYTRLRKQMAAKKYLNSIKNLR [R3P142]
0.3,100,HSDAVFTDNYTRLRKQMAAKKYLNSIKNQR [R3P146]
0.07,90,HSDAVFTDNYTRLRKQMAAKKYLNSIKNKG [R3P158]

# Continued, binder first:
Binder,R3 EC50 [nM],R3 Selectivity
HSDAVFTDNYTRLRKQMAVKKYLNDLKKGGT [R3P14],17,3
HSDAVFTDNYTRLRKQMAAKKYLNDIKKGGT [R3P20],1.4,230
HSDAVFTDNYTRLRKQMAAKKYLNSIKKGGT [R3P26],0.55,> 180
HSDAVFTDNYTRLRKQLAVKKYLNDIKKGGT [R3P21],0.3,60
HSDAVFTDNYTRLRKQLAVKKYLNDIKNGGT [R3P29],0.5,> 200
HSDAVFTDNYTRLRKQLAVKKYLNSIKKGGT [R3P25],0.7,20
HSDAVFTDNYTRLRKQLAAKKYLNSIKKGGT [R3P22],1.6,24
HSDAVFTDNYTRLRKQLAAKKYLNSIKNGGT [R3P30],0.4,50
HSDAVFTDNYTRLRKQMAAKKYLNSIKNDR [R3P136],0.3,70
HSDAVFTDNYTRLRKQLAAKKYLNDIKKGG [R3P31],0.3,> 300
HSDAVFTDNYTRLRKQMAAKKYLNSIVNKR [R3P131],0.3,70
HSDAVFTDNYTRLRKQMAAKKYLNSIKNER [R3P137],0.3,100
HSDAVFTDNYTRLRKQMAAKKYLNSIWNKR [R3P132],0.2,50
HSDAVFTDNYTRLRKQLAAKKYLNDIKK-NH2 [R3P13],5,33
HSDAVFTDNYTRLRKQMAAKKYLNSIKNGR [R3P139],0.4,50
HSDAVFTENYTKLRKQLAAKKYLNDLKKGGTSWCEPGWCR [R3P19],1.4,30
HSDAVFTDNYTRLRKQMAAKKYLNSITNKR [R3P130],1,40
HSDAVFTDNYTRLRKQMAAKKYLNSIKNAR [R3P134],0.4,–
HSDAVFTDNYTRLRKQMAAKKYLNSIKNHR [R3P140],0.3,50

# Reference: patent US6972319B1, “Pituitary adenylate cyclase activating peptide (PACAP)receptor 3 (R3) agonists and their pharmacological methods of use” (priority 1999, dated 2005)
